Measured values reported in IntAct's records for PubMed 16469698.

Biological target: mfd_ecoli mfd (UniProt P30958)

For “DNA-directed RNA polymerase subunit beta (Escherichia coli (strain K12)) (from UniProt P0A8V2) E119A”, the “effect of a mutation on the interaction” value was “decreasing interaction”.
